Data set [1] deals with eEF2K. On the set-up: method as in PMID 22115317. Conditions: with and without Ca^2+-calmodulin; ref [40]; cited from earlier work.
For data set [2], the target named is T1, A-CAT-Δ809 (Dictyostelium discoideum, UniProt P42527).
T1 construct: A-CAT encompasses the α-kinase domain and Thr825 autophosphorylation site of MHCK-A; made in house; host or cells: E. coli (printed for A-CAT and A-CAT-D663A)
T1 sequence (P42527 552-809 limits assumed): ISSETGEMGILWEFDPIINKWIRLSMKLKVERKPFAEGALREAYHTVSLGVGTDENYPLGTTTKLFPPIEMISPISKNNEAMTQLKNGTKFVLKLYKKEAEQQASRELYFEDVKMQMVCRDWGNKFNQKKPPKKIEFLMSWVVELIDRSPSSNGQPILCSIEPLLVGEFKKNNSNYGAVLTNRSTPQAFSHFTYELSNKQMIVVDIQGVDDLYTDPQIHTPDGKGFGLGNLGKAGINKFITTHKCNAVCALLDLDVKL
The data set can be described thus: Activation of truncated A-CAT-Δ809 kinase activity by phosphopeptides (Pi-pocket binding). Format: biochemical. Conditions: 22 °C, pH 7.0, mean and standard deviation of at least 3 separate experiments.
Protocol: (c) The kinase activity of A-CAT-Δ809 was assayed in the presence of peptides with the sequences QQG(p)TMVMPD (closed circles) or a QQG(p)TMSMPD (open circles). […] Kinase activities are reported as a percentage of wild-type A-CAT activity.
To test whether a hydrophobic residue in the P + 2 position favors binding to the Pi-pocket, experiments were carried out using a truncated A-CAT (A-CAT-Δ809) that lacks the activating Thr825 site of autophosphorylation and two phosphopeptides: one with a valine and one with a serine at the P + 2 position (QQG(p)TMVMPD and QQG(p)TMSMPD) (Fig. 3c).
Assays were carried out at 22 °C in a buffer containing 2 mM MgCl2, 1 mM dithiothreitol and 20 mM TES, pH 7.0. Kinase assays contained 20 μM myelin basic protein (MBP), 0.5–2 μM A-CAT and 200 μM [γ-^32P]ATP (specific activity 100 cpm/pmol). At each time point, 20 μl aliquots of the reaction mixture were spotted onto squares of Whatman P81 phosphocellulose paper, which were then washed 1% phosphoric acid, immersed in ScintiVerse Universal LS Mixture (Fisher Scientific), and counted using a Beckman LS 9000 scintillation counter. Assays to measure A-CAT-Δ809 activity in the presence of the QQG(p)TMVMPD and QQG(p)TMSMPD peptides were carried out as described[29]. […] Data from the initial linear portion of the time courses were used to calculate kinase and ATPase activity.

For data set [3], the system named is T2, Nc1ncnc2c1ncn2[C@@H]1O[C@H](COP(=O)(O)OP(=O)(O)OP(=O)(O)O)[C@@H](O)[C@H]1O.
T2 construct: A-CAT: alpha-kinase domain and Thr825 autophosphorylation site of MHCK-A; expressed in E. coli
The data set is described as follows: ATPase assay by inorganic phosphate release (Pi ColorLock Gold) at 22 °C in 2 mM MgCl2, 1 mM dithiothreitol, 20 mM TES, pH 7.0. The class given is biochemical. The procedure:
(§1) Assays were carried out at 22 °C in a buffer containing 2 mM MgCl2, 1 mM dithiothreitol and 20 mM TES, pH 7.0. Kinase assays contained 20 μM myelin basic protein (MBP), 0.5–2 μM A-CAT and 200 μM [γ-^32P]ATP (specific activity 100 cpm/pmol). At each time point, 20 μl aliquots of the reaction mixture were spotted onto squares of Whatman P81 phosphocellulose paper, which were then washed 1% phosphoric acid, immersed in ScintiVerse Universal LS Mixture (Fisher Scientific), and counted using a Beckman LS 9000 scintillation counter. Assays to measure A-CAT-Δ809 activity in the presence of the QQG(p)TMVMPD and QQG(p)TMSMPD peptides were carried out as described. ATPase activity was assayed using 250 μM ATP and release of inorganic phosphate (Pi) was measured using the Pi ColorLock Gold phosphate detection system (Innova Biosciences). Data from the initial linear portion of the time courses were used to calculate kinase and ATPase activity. Nucleotide binding assays using mant-ATP and mant-ADP were carried out as previously described. Results represent the mean and standard deviation of at least 3 separate experiments.

Data set [4] has the same test system. The data set is described as follows: Radiometric kinase assay with [γ-32P]ATP and 20 μM myelin basic protein as phosphate acceptor (P81 paper) at 22 °C in 2 mM MgCl2, 1 mM dithiothreitol, 20 mM TES, pH 7.0. Format: biochemical. The procedure:
as §1

Substrate in data set [5]: Nc1ncnc2c1ncn2[C@@H]1O[C@H](COP(=O)(O)OP(=O)(O)OP(=O)(O)O)[C@@H](O)[C@H]1O
The data set is described as follows: ATPase assay by inorganic phosphate release (Pi ColorLock Gold) at 22 °C in 2 mM MgCl2, 1 mM dithiothreitol, 20 mM TES, pH 7.0. The class given is biochemical. The protocol: as §1

Substrate in data set [6]: Nc1ncnc2c1ncn2[C@@H]1O[C@H](COP(=O)(O)OP(=O)(O)OP(=O)(O)O)[C@@H](O)[C@H]1O
The data set is described as follows: Radiometric kinase assay with [γ-32P]ATP and 20 μM myelin basic protein as phosphate acceptor (P81 paper) at 22 °C in 2 mM MgCl2, 1 mM dithiothreitol, 20 mM TES, pH 7.0. The class given is biochemical. The procedure:
as §1

A short description of data set [7]: ATPase activity of A-CAT and mutants (phosphate release). Format: biochemical. Conditions: 22 °C, 2 mM MgCl2, 20 mM TES, pH 7.0; Pi ColorLock Gold phosphate detection; mean and standard deviation of at least 3 separate experiments. The procedure: as §1
The subject of data set [8] is myelin basic protein (MBP). The data set is described as follows: Kinase activity of A-CAT and mutants towards myelin basic protein. Format: biochemical. Conditions: 20 μM MBP, 0.5–2 μM A-CAT, [γ-^32P]ATP; 22 °C, pH 7.0; mean and standard deviation of at least 3 separate experiments. The procedure:
as §1

Data set [9] has as its target A-CAT-Δ809, truncated A-CAT that lacks the activating Thr825 site of autophosphorylation (Dictyostelium).

Non-standard residues stand in square brackets, D forms with d. Residues, ends and D or L forms follow the SMILES beside them. No end group written: not given here. pT = C[C@@H](OP(=O)(O)O)[C@H](N)C(=O)O

The values that follow come from paper PMC4876393, “Structure of the Dictyostelium Myosin-II Heavy Chain Kinase A (MHCK-A) α-kinase domain apoenzyme reveals a novel autoinhibited conformation” (Scientific Reports, 2016).

As for `Nc1ncnc2c1ncn2[C@@H]1O[C@H](COP(=O)(O)OP(=O)(O)OP(=O)(O)O)[C@@H](O)[C@H]1O` [ATP], in data set [1], the “ATP binding to eEF2K” value was “binds ATP in the presence and absence of Ca^2+-calmodulin”; the “UV cross-linking of ATP to eEF2K” value was “can be UV cross-linked to ATP only in the presence of Ca^2+-calmodulin”.

Turning to `CSCC[C@H](NC(=O)[C@@H](NC(=O)CNC(=O)[C@H](CCC(N)=O)NC(=O)[C@@H](N)CCC(N)=O)[C@@H](C)OP(=O)(O)O)C(=O)N[C@H](C(=O)N[C@@H](CCSC)C(=O)N1CCC[C@H]1C(=O)N[C@@H](CC(=O)O)C(=O)O)C(C)C` [QQG(p)TMVMPD] (H-QQG[pT]MVMPD-OH), the affinity in data set [2] (hyperbolic fit of A-CAT-Δ809 kinase activity vs peptide, assayed as described in ref [29], 2 mM MgCl2, 1 mM dithiothreitol, 20 mM TES), expressed as Kd, was 38 ± 12 µM. In [2] (kinase activity as a percentage of wild-type A-CAT activity, hyperbolic fit), the Vmax is 61 ± 4%.

Consider D663A (Dictyostelium discoideum; D663A), for which, in data set [3], the Km was 21 ± 5 µM and the kcat came to 0.0167 ± 0.00333 s⁻¹. Moreover, in [4], the Km was 54 ± 25 µM and the kcat came to 0.00105 ± 0.000117 s⁻¹.

B1: A-CAT WT (Dictyostelium discoideum) (protein)
chain: ISSETGEMGILWEFDPIINKWIRLSMKLKVERKPFAEGALREAYHTVSLGVGTDENYPLGTTTKLFPPIEMISPISKNNEAMTQLKNGTKFVLKLYKKEAEQQASRELYFEDVKMQMVCRDWGNKFNQKKPPKKIEFLMSWVVELIDRSPSSNGQPILCSIEPLLVGEFKKNNSNYGAVLTNRSTPQAFSHFTYELSNKQMIVVDIQGVDDLYTDPQIHTPDGKGFGLGNLGKAGINKFITTHKCNAVCALLDLDVKLGGVLSGNNKKQLQQGTMVMPDILPELMPSDNT
notes: A-CAT: alpha-kinase domain and Thr825 autophosphorylation site of MHCK-A; expressed in E. coli
With B1, in data set [5], the Km was 35 ± 4 µM and the kcat stood at 0.0317 ± 0.00167 s⁻¹. Also, in data set [6], the Km is 23 ± 5 µM and the kcat was found to be 0.0967 ± 0.00667 s⁻¹.

B2: WT: α-kinase domain and Thr825 autophosphorylation site of MHCK-A (protein)
chain: B1 chain
modifications: phosphothreonine at 612 (P-Thr612); phosphoaspartate at 663 (P-Asp663)
notes: α-kinase domain and Thr825 autophosphorylation site of MHCK-A
In the case of B2, in [7], the “ATPase Activity kcat” value came out at 0.0317 ± 0.0017 s⁻¹. For the same molecule, the “Kinase Activity kcat” value in data set [8] worked out at 0.0967 ± 0.0067 s⁻¹.

Turning to QQG[pT]MSMPD [QQG(p)TMSMPD phosphopeptide], in data set [9], the kinase activity of A-CAT-Δ809 assayed in the presence of the peptide; Kd from a hyperbolic curve fit came to 98 µM.

On to QQG[pT]MVMPD [QQG(p)TMVMPD phosphopeptide], for which the kinase activity of A-CAT-Δ809 assayed in the presence of the peptide; Kd from a hyperbolic curve fit in data set [9] stood at 38 µM.

As a reminder, the Kd is the free concentration of one partner at which half of the binding sites on the other are occupied at equilibrium, for simple one-to-one binding. A low value points to tighter binding. As usually defined, the Km is the substrate concentration at which the rate is half of its maximum. What is called kcat is the maximal rate divided by the concentration of active sites.
